Assay results from patent US20220289857A1 (Kyowa Kirin, published 2022).
Values joined by “and” are separate entries in the source; they are usually repeats but may differ in a detail not shown here. Identical values can stand only once.

T1: human Fn14 (full length) on cells (human, UniProt Q9NP84 28-129)
T1 construct: Transfected 293F cells, or endogenous on HK2, HRMC, A375, HaCaT, primary keratinocytes and dermal fibroblasts; also called hFn14; TNFRSF12A
T1 sequence: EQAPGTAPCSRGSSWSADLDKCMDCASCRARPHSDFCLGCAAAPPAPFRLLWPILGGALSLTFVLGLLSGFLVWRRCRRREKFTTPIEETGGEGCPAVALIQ


Legend:
[1] = target: T2, His-SUMO-huFn14 (soluble human Fn14 aa 28-75 with N-terminal 6xHis-SUMO tag) (human); assay: SPR single-cycle kinetics; mAb captured by anti-human Fc, His-Sumo-Fn14 analyte; 1:1 fit
T2 construct: also called His-SUMO-Fn14; His-SUMO-hFn14
Method: (§1) Alternatively, using a method referred to as “single cycle kinetics,” the His-Sumo-Fn14 was injected with increasing concentrations in a single cycle, the surface not being regenerated between injections. Specifically, anti-human Fc specific antibodies were immobilized on a CM5 sensor chip (cat# BR100012, GE Healthcare Life Sciences, Pittsburgh, Pennsylvania) by an amine coupling chemistry. Thereafter, humanized anti-Fn14 antibodies were captured at approximately 200 RUs, followed by injections of increasing concentrations of recombinant human His-Sumo-Fn14 protein. The association time was 120 seconds, and the final dissociation time was 900 seconds. At the end of the analyte injections, the surface was regenerated with 3M MgCl₂ for 30s. The raw data were double referenced by subtraction of the signals from a reference flow cell without immobilized ligand and a buffer blank. The sensorgram corresponding to each concentration was obtained (see FIG. 6B).

[2] = target: T2, His-SUMO-huFn14 (soluble human Fn14 aa …); assay: SPR single-cycle kinetics; mAb captured by anti-human Fc, His-Sumo-Fn14 analyte; average of three runs
Method: as §1

[3] = target: T1, human Fn14 (full length) on cells; assay: flow cytometry blocking assay on HRMC: antibody for 30 min, then recombinant human TWEAK at 250 ng/mL for 45 min; bound TWEAK detected with biotinylated goat anti-human TWEAK and streptavidin-PE; blocked ligand: TWEAK
Method: FIG. 25 depicts that humanized anti-Fn14 antibodies blocked TWEAK binding to Fn14 expressed on cells. HRMC were incubated with individual antibodies at various concentrations for 30 minutes followed by incubation with recombinant human TWEAK (250 ng/mL) for 45 minutes. Binding of TWEAK to HRMC cells was detected with biotinylated goat-anti-human TWEAK followed by streptavidin-PE. Stained cells were acquired on a Fortessa. % TWEAK blocking was calculated using the following formula: 100-(Geometric mean fluorescence intensity of sample—Geometric mean fluorescence intensity of cells without TWEAK)/(Geometric mean fluorescence intensity-TWEAK alone with no antibody—Geometric mean fluorescence intensity of cells without TWEAK)*100.
HRMC cells were incubated with individual antibodies at various concentrations (0.015625-1 ng/mL) for 30 minutes at room temperature. Recombinant human TWEAK (R&D Systems, Cat# 1090-TW/CF) was then added to the cells and incubated for 45 minutes at room temperature. Binding of TWEAK to HRMC cells was detected with a biotinylated goat-anti-human TWEAK (R&D Systems, Cat# BAF1090) followed by streptavidin-PE (Biolegend, Cat# 405204). Stained cells were acquired on a Fortessa. % TWEAK blocking was calculated using the following formula: 100-(Geometric mean fluorescence intensity of sample—Geometric mean fluorescence intensity of cells without TWEAK)/(Geometric mean fluorescence intensity—TWEAK alone with no antibody—Geometric mean fluorescence intensity of cells without TWEAK)*100.

[4] = target: T1, human Fn14 (full length) on cells; assay: cell-based or functional assay
[5] = target: T2, His-SUMO-huFn14 (soluble human Fn14 aa …); assay: SPR Biacore; His-Sumo-huFn14 0.111-9 nM

T2 sequence (chain, as listed by the source limits assumed): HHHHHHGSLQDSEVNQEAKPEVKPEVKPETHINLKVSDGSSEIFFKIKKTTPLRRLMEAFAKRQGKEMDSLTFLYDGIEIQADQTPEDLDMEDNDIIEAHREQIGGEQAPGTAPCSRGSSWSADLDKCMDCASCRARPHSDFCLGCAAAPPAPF

| Binder | Kd [1] | koff [1] | kon [1] | Kd [2] [nM] | ICAM-1 MFI on HRMC, 250 ng/mL rhTWEAK, mAb 0.1 µg/mL [4] [MFI] | also measured |
| --- | --- | --- | --- | --- | --- | --- |
| A641/A468 humanized IgG4 Nullbody, kappa antibody (antibody) heavy: not shown light: DVVMTQSPLSLPVTLGQPASISCKSSQSLLNSAGKTYLNWLQQRPGQSPRRLIYLVSQLDSGVPDRFSGSGSGTDFTLKISRVEAEDVGVYYCWQGTFYPWTFGGGTKVEIKRTVAAPSVFIFPPSDEQLKSGTASVVCLLNNFYPREAKVQWKVDNALQSGNSQESVTEQDSKDSTYSLSSTLTLSKADYEKHKVYACEVTHQGLSSPVTKSFNRGEC | 0.262 nM and 0.249 nM and 0.257 nM | 0.000756 s⁻¹ and 0.000773 s⁻¹ and 0.000764 s⁻¹ | 2.89e+06 M⁻¹ s⁻¹ and 3.11e+06 M⁻¹ s⁻¹ and 2.97e+06 M⁻¹ s⁻¹ | 0.256 | – | – |
| chimeric R35B9 (antibody, human IgG4 S228P, kappa, It may be the same molecule as m27, R35B9 (A451/A452), but neither the sheet nor the text says so; also called mouse-human chimeric R35B9) heavy chain: not shown light chain: DVVMTQTPLTLSVAIGQPASISCKSSQSLLNSAGKTYLNWLLQRPGQSPKRLIYLVSQLDSGVPDRFTGSGSGTDFTLKISRVEAEDLGVYYCWQGTFYPWTFGGGTKLEIKRTVAAPSVFIFPPSDEQLKSGTASVVCLLNNFYPREAKVQWKVDNALQSGNSQESVTEQDSKDSTYSLSSTLTLSKADYEKHKVYACEVTHQGLSSPVTKSFNRGEC | – | – | – | – | – | IC50 (read off the curve) [3]: ~0.2 µg/mL |
| A512/A468 humanized IgG4 Nullbody, kappa antibody (antibody, V domains shown, Human IgG4null constant (S228P, L235E, R409K); also called hzR35B9(A56)-HV11 / hzR35B9-LV1a) VH: QVQLVQSGPEVVKPGASVKVSCKASGYIFQDYNMHWVRQAHGQSLEWMGSINPRNAWTNYNQKFKGRATITVDKSTRTAYMELSSLRSEDTAVYYCASSGWFTYWGQGTLVTVSS VL: DVVMTQSPLSLPVTLGQPASISCKSSQSLLNSAGKTYLNWLQQRPGQSPRRLIYLVSQLDSGVPDRFSGSGSGTDFTLKISRVEAEDVGVYYCWQGTFYPWTFGGGTKVEIKR | 0.226 nM and 0.194 nM and 0.197 nM | 0.000679 s⁻¹ and 0.000664 s⁻¹ and 0.000652 s⁻¹ | 3e+06 M⁻¹ s⁻¹ and 3.43e+06 M⁻¹ s⁻¹ and 3.31e+06 M⁻¹ s⁻¹ | 0.206 | – | IC50 (read off the curve) [3]: ~0.3 µg/mL |
| A515/A518 humanized IgG4 Nullbody, kappa antibody (antibody, V domains shown, also called hzR35B9(Y50A56G57)-HV7b / hzR35B9(H98)-LV1a) VH: QVQLVQSGAEVVKPGASVKVSCKASGYIFQDYNMHWVRQAHGQGLEWMGYINPRNAGTNYNQKFKGRVTITADKSTRTAYMELSSLRSEDTAVYYCASSGWFTYWGQGTLVTVSS VL: DVVMTQSPLSLPVTLGQPASISCKSSQSLLNSAGKTYLNWLQQRPGQSPRRLIYLVSQLDSGVPDRFSGSGSGTDFTLKISRVEAEDVGVYYCWQGTHYPWTFGGGTKVEIKR | 0.461 nM and 0.473 nM and 0.477 nM | 0.00144 s⁻¹ and 0.00154 s⁻¹ and 0.0015 s⁻¹ | 3.2e+06 M⁻¹ s⁻¹ (2×) and 3.1e+06 M⁻¹ s⁻¹ | 0.47 | – | binding result [3]: binds |
| A648/A468 humanized IgG4 Nullbody, kappa antibody (antibody, V domains shown) VH: QVQLQQSGPEVVKPGASVKVSCKASGYIFQDYNMHWVKQAHGQSLEWMGSINPRNAWTNYNDKFKGKATLTVDKSTRTAYMELSSLRSEDTAVYYCASSGWFTYWGQGTLVTVSS VL: DVVMTQSPLSLPVTLGQPASISCKSSQSLLNSAGKTYLNWLQQRPGQSPRRLIYLVSQLDSGVPDRFSGSGSGTDFTLKISRVEAEDVGVYYCWQGTFYPWTFGGGTKVEIKR | 0.191 nM and 0.237 nM (2×) | 0.000531 s⁻¹ and 0.000756 s⁻¹ and 0.000742 s⁻¹ | 2.78e+06 M⁻¹ s⁻¹ and 3.19e+06 M⁻¹ s⁻¹ and 3.13e+06 M⁻¹ s⁻¹ | 0.222 | – | – |
| A650/A468 humanized IgG4 Nullbody, kappa antibody (antibody) heavy: not shown light: DVVMTQSPLSLPVTLGQPASISCKSSQSLLNSAGKTYLNWLQQRPGQSPRRLIYLVSQLDSGVPDRFSGSGSGTDFTLKISRVEAEDVGVYYCWQGTFYPWTFGGGTKVEIKRTVAAPSVFIFPPSDEQLKSGTASVVCLLNNFYPREAKVQWKVDNALQSGNSQESVTEQDSKDSTYSLSSTLTLSKADYEKHKVYACEVTHQGLSSPVTKSFNRGEC | 0.264 nM and 0.287 nM and 0.282 nM | 0.000871 s⁻¹ and 0.000843 s⁻¹ and 0.000825 s⁻¹ | 3.3e+06 M⁻¹ s⁻¹ and 2.9e+06 M⁻¹ s⁻¹ (2×) | 0.278 | – | – |
| A437/A290 mouse IgG1(D265A), kappa antibody (antibody, V domains shown) VH: EVQLQQSGPELVKPGASVKMSCKASGYIFQDYNMHWVKQSHGKSLEWIGYINPRNGWTNYNQKFKGKATLTVNKSSRSAYMEFRSLTSEDSAVYYCASSGWFTYWGQGTLVTVSA VL: not shown | – | – | – | – | 5110 | – |
| R35B9 (A451/A452) antibody (antibody, V domains shown) VH: EVQLQQSGPELVKPGASVKMSCKASGYIFQDYNMHWVKQSHGKSLEWIGSINPRNGWTNYNQKFKGKATLTVNKSSRSAYMEFRSLTSEDSAVYYCASSGWFTYWGQGTLVTVSA VL: not shown | – | – | – | – | – | Kd [5]: 0.132 nM; koff [5]: 0.000994 s⁻¹; kon [5]: 7.52e+06 M⁻¹ s⁻¹ |
| A448/A439 mouse IgG1(D265A), kappa antibody (antibody, V domains shown) VH: EVQLQQSGPELVKPGASVKMSCKASGYIFQDYNMHWVKQSHGKSLEWIGYINPRNGGTNYNQKFKGKATLTVNKSSRSAYMEFRSLTSEDSAVYYCASSGWFTYWGQGTLVTVSA VL: not shown | – | – | – | – | 5480 | – |
| A448/A290 mouse IgG1(D265A), kappa antibody (antibody, V domains shown) VH: EVQLQQSGPELVKPGASVKMSCKASGYIFQDYNMHWVKQSHGKSLEWIGYINPRNGGTNYNQKFKGKATLTVNKSSRSAYMEFRSLTSEDSAVYYCASSGWFTYWGQGTLVTVSA VL: not shown | – | – | – | – | 6430 | – |
| R35B9(A56) (A486/A452) antibody (antibody, V domains shown, G56A in HCDR2 removes the NG deamidation site; Constant regions not clear) VH: EVQLQQSGPELVKPGASVKMSCKASGYIFQDYNMHWVKQSHGKSLEWIGSINPRNAWTNYNQKFKGKATLTVNKSSRSAYMEFRSLTSEDSAVYYCASSGWFTYWGQGTLVTVSA VL: not shown | – | – | – | – | – | Kd [5]: 0.0714 nM; koff [5]: 0.000354 s⁻¹; kon [5]: 4.96e+06 M⁻¹ s⁻¹ |
| A553/A472 humanized IgG4 Nullbody, kappa antibody (antibody, V domains shown, also called hzR35B9(A56)-HV7c / hzR35B9-LV4) VH: QVQLVQSGAEVKKPGASVKVSCKASGYIFQDYNMHWVKQAPGQGLEWIGSINPRNAWTNYNQKFKGKATITADTSTSTAYMELSSLRSEDTAVYYCASSGWFTYWGQGTLVTVSS VL: DVVMTQSPLSLPVTIGQPASISCKSSQSLLNSAGKTYLNWLLQRPGQSPKRLIYLVSQLDSGVPDRFSGSGSGTDFTLKISRVEAEDVGVYYCWQGTFYPWTFGGGTKVEIKR | 0.374 nM and 0.347 nM and 0.353 nM | 0.000804 s⁻¹ and 0.000812 s⁻¹ and 0.000799 s⁻¹ | 2.2e+06 M⁻¹ s⁻¹ and 2.3e+06 M⁻¹ s⁻¹ (2×) | 0.358 | – | binding result [3]: binds |
| CRCBT-06-002 as mouse IgG1(D265A), kappa antibody (antibody, V domains shown) VH: EVKLQQSGGGLVQPGGSMKLSCVASGFTFSYYWMNWVRQSPEQGLEWIAEIRLQSNDYPTHYAESVKGRFTISRDDSKNSVYLQMNNLRPEDTGIYYCACRYADYFDHWGQGTTLTVSS VL: DTVLTQSPASLVVSLGQRATISCRASQSVSTSDYSYIHWYQQKPGQPPKFLIKYASNRDSGVPARFSGSGSGTDFTLNIHPVEEDDTAIYYCQHSWEIPPTFGAGTKLELQR | – | – | – | – | 11800 | – |
